Experimental findings from patent US20050207995A1 are described below.

Assay [1] concerns the target human salivary α-amylase (Type IX A, Sigma Chemical Co.) (human). The experiment in a line: ELISA: amylase (10.0 µg/ml) coated, 65 kDa protein added, detected with rat anti-65 kDa serum.
Assay [2] addresses human whole saliva (human). The experiment in a line: ELISA: 1:2 dilution of whole saliva coated, 65 kDa protein added, detected with rat anti-65 kDa serum.

Sequence of human salivary α-amylase (Type IX A, Sigma Chemical Co.) (human) (P0DUB6 16-511): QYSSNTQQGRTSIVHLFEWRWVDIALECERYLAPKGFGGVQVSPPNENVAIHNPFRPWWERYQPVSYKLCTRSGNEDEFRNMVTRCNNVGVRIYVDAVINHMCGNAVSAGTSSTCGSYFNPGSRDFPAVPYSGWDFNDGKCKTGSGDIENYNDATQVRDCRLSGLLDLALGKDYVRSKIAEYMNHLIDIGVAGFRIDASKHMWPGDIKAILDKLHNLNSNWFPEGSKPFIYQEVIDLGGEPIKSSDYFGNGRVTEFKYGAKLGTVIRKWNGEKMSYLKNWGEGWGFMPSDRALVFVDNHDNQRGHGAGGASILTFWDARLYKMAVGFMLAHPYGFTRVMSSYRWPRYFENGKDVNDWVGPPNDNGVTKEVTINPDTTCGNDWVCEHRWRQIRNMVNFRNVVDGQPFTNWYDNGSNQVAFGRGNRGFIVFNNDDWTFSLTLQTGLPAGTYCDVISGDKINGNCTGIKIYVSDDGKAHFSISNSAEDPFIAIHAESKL

With “purified 65 kDa fimbrial protein of S. mutans A32-2 (serotype c) (enzyme)”, the O.D. (ELISA absorbance at 490 nm) in assay [1] worked out at 0.25 O.D; in assay [2], 0.26 O.D.
